Test results published in publication PMC3384312 (Nucleic Acids Research, 2012).
5‑acetamidofluorescein = fluorescein label from 5-iodoacetamidofluorescein attached at Cys

Legend:
MEF2A (1-95) [1] = target: T1, MEF2A (1-95) (UniProt Q02078 1-95); experiment: fluorescence polarisation
T1 sequence: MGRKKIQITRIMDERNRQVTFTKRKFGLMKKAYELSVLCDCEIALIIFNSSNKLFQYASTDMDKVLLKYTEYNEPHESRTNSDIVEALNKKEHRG

crystal structure = target: the molecule itself; experiment: crystal structure
MEF2A (1-95) [2] = target: T1, MEF2A (1-95); experiment: SPR

B1: HDAC4 fragment (AA 155-218) labeled by 5-Iodoacetamidofluorescein via Cys194 (domain or fragment, UniProt P56524 155-218, looked up)
chain: LKNKEKGKESAVASTEVKMKLQEFVLNKKKALAHRNLNHC(5‑acetamidofluorescein)ISSDPRYWYGKTQHSSLDQSSPPQ
- binding result (MEF2A (1-95) [1]): binds

B2: MEF2A (1-78) (domain or fragment)
chain: MGRKKIQITRIMDERNRQVTFTKRKFGLMKKAYELSVLCDCEIALIIFNSSNKLFQYASTDMDKVLLKYTEYNEPHES
- binding result (crystal structure): binds

B3: HDAC4 (AA 155-220) (domain or fragment)
chain: LKNKEKGKESAVASTEVKMKLQEFVLNKKKALAHRNLNHCISSDPRYWYGKTQHSSLDQSSPPQSG
- binding result (MEF2A (1-95) [2]): binds
